In article doi:10.1101/431106, “The architecture of the endoplasmic reticulum is regulated by the reversible lipid modification of the shaping protein CLIMP-63” (bioRxiv, 2018):
Numbering of substitutions follows the chain as printed. Names and notes keep the numbering of the source.

B1: HA-CLIMP-63 V137C (natural protein, UniProt Q07065 1-602, looked up)
chain: MPSAKQRGSKGGHGAASPSEKGAHPSGGADDVAKKPPPAPQQPPPPPAPHPQQHPQQHPQNQAHGKGGHRGGGGGGGKSSSSSSASAAAAAAAASSSASCSRRLGRALNFLFYLALVAAAAFSGWCVHHVLEEVQQCRRSHQDFSRQREELGQGLQGVEQKVQSLQATFGTFESILRSSQHKQDLTEKAVKQGESEVSRISEVLQKLQNEILKDLSDGIHVVKDARERDFTSLENTVEERLTELTKSINDNIAIFTEVQKRSQKEINDMKAKVASLEESEGNKQDLKALKEAVKEIQTSAKSREWDMEALRSTLQTMESDIYTEVRELVSLKQEQQAFKEAADTERLALQALTEKLLRSEESVSRLPEEIRRLEEELRQLKSDSHGPKEDGGFRHSEAFEALQQKSQGLDSRLQHVEDGVLSMQVASARQTESLESLLSKSQEHEQRLAALQGRLEGLGSSEADQDGLASTVRSLGETQLVLYGDVEELKRSVGELPSTVESLQKVQEQVHTLLSQDQAQAARLPPQDFLDRLSSLDNLKASVSQVEADLKMLRTAVDSLVAYSVKIETNENNLESAKGLLDDLRNDLDRLFVKVEKIHEKV
notes: Made to trap dimers through a disulfide bond; also called V137C CLIMP-63; V137C mutant; source: HeLa (control or ZDHHC6 KO), transfected 24 hours, total cell extracts or immunoprecipitated with HA-beads; not shown: HA, N-terminal, kept
B2: cytoskeleton-linking membrane protein 63 (CLIMP-63), endogenous (natural protein, human (endogenous in HeLa), UniProt Q07065 1-602, looked up)
chain: B1 chain with C137V
modifications: S-palmitoylation on Cys-100 in the majority (87%) of the cellular protein
notes: CLIMP-63 (CKAP4), endogenous protein of HeLa cells; also called CKAP4; source: endogenous, HeLa cells (membrane fraction, total cell extracts, fixed cells)

Columns and labels:
[1] = target: the molecule itself; assay: cross-linking; disulfide trapping by an engineered cysteine; 35S Cys-Met 20 min pulse, immunoprecipitated using HA-beads, non-reducing SDS-PAGE, autoradiography; control cells and ZDHHC6 KO cells
[2] = target: the molecule itself; assay: cross-linking; HeLa cells crosslinked 5 min at room temperature with 1mM BMOE, 1mM DSS or 0.025% glutaraldehyde; non-reducing SDS-PAGE, anti-CLIMP-63 blot

Protein | stoichiometry N [1] | stoichiometry N [2]
B1 | 2 | –
B2 | – | 2
